Source: patent publication US20030049255A1 (published 2003)
One block for each molecule: values may come before it.

B2: recombinant human type II IL-1R:Fc (Fc fusion)
chain: FTLQPAAHTGAARSCRFRGRHYKREFRLEGEPVALRCPQVPYWLWASVSPRINLTWHKNDSARTVPGEEETRMWAQDGALWLLPALQEDSGTYVCTTRNASYCDKMSIELRVFENTDAFLPFISYPQILTLSTSGVLVCPDLSEFTRDKTDVKIQWYKDSLLLDKDNEKFLSVRGTTHLLVHDVALEDAGYYRCVLTFAHEGQQYNITRSIELRIKKKKEETIPVIISPLKTISASLGSRLTIPCKVFLGTGTPLTTMLWWTANDTHIESAYPGGRVTEGPRQEYSENNENYIEVPLIFDPVTREDLHMDFKCVVHNTLSFQTLRTTVKE
notes: also called human IL-1RII:Fc; soluble recombinant human type II IL 1R:Fc; not shown: Fc portion of human IgG
B4: human IL-1α (ligand, UniProt P01583 113-271, looked up)
chain: SAPFSFLSNVKYNFMRIIKYEFILNDALNQSIIRANDQYLTAAALHNLDEAVKFDMGAYKSSKDDAKITVILRISKTQLYVTAQDEDQPVLLKEMPEIPKTITGSETNLLFFWETHGTKNYFTSVAHPNLFIATKQDYWVCLAGGPPSITDFQILENQA
notes: also called IL-1 alpha

What was measured:
[1] = target: recombinant rhesus IL-1β (rhesus) (UniProt P48090); assay: cell-based or functional assay
Chain of recombinant rhesus IL-1β (rhesus) (P48090 117-269 limits assumed): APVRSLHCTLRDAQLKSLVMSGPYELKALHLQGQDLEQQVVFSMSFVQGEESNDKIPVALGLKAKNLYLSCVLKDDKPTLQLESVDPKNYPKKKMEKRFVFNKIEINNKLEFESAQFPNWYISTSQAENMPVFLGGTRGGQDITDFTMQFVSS

[2] = target: recombinant rhesus IL-1α (rhesus) (UniProt P48089); assay: cell-based or functional assay
[3] = target: cynomolgus IL-1β (cynomolgus macaque) (UniProt P79182); assay: SPR, BIACORE 3000, both Fc fusions captured, ligand in flow
Chain of cynomolgus IL-1β (cynomolgus macaque) (P79182 117-268 limits assumed): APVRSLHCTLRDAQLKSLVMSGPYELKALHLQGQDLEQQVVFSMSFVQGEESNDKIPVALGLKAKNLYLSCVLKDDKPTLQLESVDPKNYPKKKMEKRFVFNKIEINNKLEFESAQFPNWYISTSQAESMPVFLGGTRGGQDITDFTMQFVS

[4] = target: B2; assay: SPR, BIACORE 3000, receptor:Fc captured, ligand in flow, without cynomolgus IL-1AcP
human IL-1α = target: B4; assay: SPR, BIACORE 3000, receptor:Fc captured on anti-human IgG Fc, ligand in flow, 25 C, without IL-1AcP
Protocol: (§1) The relative ability of purified soluble type II IL-1R to bind IL-1α, IL-1β and IL-1ra was measured using a BIACORE 3000 instrument with a research grade CM5 sensor chip at 25 degrees C. Soluble recombinant human type II IL-1R was fused to the Fc portion of human IgG so that the resulting type II IL-1R:Fc construct could be bound to a goat anti-human IgG, Fc chain-specific antibody immobilized to the chip using standard amine coupling chemistry. A similar construct was made using IL-1AcP for the same reason. When IL-1AcP:Fc was used in combination with type II IL-1R:Fc, it was mixed in a 1:1 molar ratio before injection into the BIACORE 3000. Kinetic data were obtained by running a range of concentrations of IL-1α, IL-1β, and IL-1 ra over a flow cell that contained receptor bound to immobilized antibody, and a reference cell of immobilized antibody alone. […] In the presence of human IL-1AcP:Fc, the apparent equilibrium binding constants of human type II IL-1R:Fc for human IL-1α and IL-1β were increased >100-fold over those measured in the absence of human IL-1AcP. Human IL-1AcP:Fc slowed the dissociation rates of both ligands by 100-fold. In contrast, human IL-1AcP:Fc had little effect on the affinity of human IL-1RII:Fc for human IL-1ra. In the absence of receptor, no binding of human IL-1α, IL-1β, and IL-1ra to human IL-1AcP:Fc was detected.

[5] = target: T1, recombinant human IL-1 receptor Accessory Protein (AcP):Fc (human, UniProt Q9NPH3 21-359); assay: SPR, BIACORE 3000, Fc fusion captured on anti-human IgG Fc, ligand in flow
T1 construct: also called human IL-1AcP:Fc; soluble recombinant human IL-1AcP:Fc
T1 sequence: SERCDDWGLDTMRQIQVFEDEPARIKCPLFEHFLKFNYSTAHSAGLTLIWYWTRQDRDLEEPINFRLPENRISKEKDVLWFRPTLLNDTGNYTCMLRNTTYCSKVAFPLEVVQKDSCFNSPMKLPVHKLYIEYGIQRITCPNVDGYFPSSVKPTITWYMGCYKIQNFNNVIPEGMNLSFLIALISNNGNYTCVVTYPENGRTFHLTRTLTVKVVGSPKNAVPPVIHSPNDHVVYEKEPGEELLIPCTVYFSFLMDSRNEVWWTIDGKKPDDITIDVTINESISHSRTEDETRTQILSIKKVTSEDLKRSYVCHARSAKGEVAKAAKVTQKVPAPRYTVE
Protocol: as §1

NF-κB luciferase reporter activity in COS7 cells [1]: 25 fold | NF-κB luciferase reporter activity in COS7 cells [2]: 25 times
Molecule: soluble IL-1R Type II in the presence of IL-1RAcP (from UniProt P27930 14-343; Q9NPH3 21-367)

Ka [3]: 1.8e+08 M⁻¹ | fold increase of apparent affinity over that without IL-1AcP [3]: > 100 fold
Molecule: human type II IL-1R:Fc in the presence of cynomolgus IL-1AcP:Fc (from UniProt A0A7N9CMI5 18-336)

Ka [4]: 1.4e+06 M⁻¹
B1: cynomolgus IL-1α (ligand, cynomolgus macaque, UniProt P79340 113-271, looked up)
chain: SAPFSFLSNMTYHFIRIIKHEFILNDTLNQTIIRANDQYLTAAAIHNLDEAVKFDMGAYTSSKDDTKVPVILRISKTQLYVSAQDEDQPVLLKEMPEIPKTITGSETNFLFFWETHGTKNYFISVAHPNLFIATKHDNWVCLAKGLPSITDFQILENQA
notes: also called cynomolgus macaque IL-1α

Molecule: B2
fold lower affinity than for human IL-1β (human IL-1α): 100 fold

Ka [4]: 6.2e+07 M⁻¹
B3: cynomolgus IL-1ra (ligand, cynomolgus macaque, UniProt Q866R8 26-177, looked up)
chain: RPSGRKPSKMQAFRIWDVNQKTFYLRNNQLVAGYLQGPNVNLEEKIDVVPIEPHALFLGIHGGKMCLSCVKSGDETRLQLEAVNITDLSKNRKQDKRFAFVRSDSGPTTSFESAACPGWFLCTAMEADQPVSLTNMPDKGVMVTKFYFQEDE
notes: also called cynomolgus macaque IL-1 receptor antagonist

Molecule: B4
binding result [5]: no binding
